Test results as given in paper PMC3793974, “Solution NMR Structure and Histone Binding of the PHD Domain of Human MLL5” (PLoS ONE, 2013).
Where no end group is shown, it is not given here. Me3 = trimethyl-lysine; Me2 = dimethyl-lysine

T1: PHD domain of human MLL5 (Ser109-Asp188) (human, UniProt Q8IZD2 109-188, 15N-labelled in the NMR titration)
T1 construct: Mixed Lineage Leukemia 5 (MLL5), human, PHD finger, residues 109-188, 80 residues; Cloned into the vector pET28a-MHL (GenBank EF456735 is the vector's id); The tag is detected with anti-His in the peptide array; also called MLL5PHD; MLL5 PHD finger; source: E. coli BL21 (DE3) Codon plus RIL, purified (Ni column, Superdex200, Source 30Q; for NMR 13C/15N-labelled from minimal media, Ni-NTA)
T1 sequence (looked up): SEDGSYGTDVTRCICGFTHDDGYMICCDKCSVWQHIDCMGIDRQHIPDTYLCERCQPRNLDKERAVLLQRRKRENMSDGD

B1: H3K4me2 peptide labelled with fluorescein (peptide)
chain: ARTK(Me2)QTARKSTGGKA
modifications: not fully specified (N-terminus); also: fluorescein label, C- or N-terminal (sources disagree)
B2: H3K4me3 peptide labelled with fluorescein (peptide)
chain: ARTK(Me3)QTARKSTGGKA
modifications: not fully specified (N-terminus); also: fluorescein label, C- or N-terminal (sources disagree)

Target: T1, PHD domain of human MLL5 (Ser109-Asp188)
Experiment: fluorescence polarisation; 40 nM fluorescein-labelled peptide, MLL5PHD titrated (low to high micromolar); 20 mM Tris-HCl pH 7.5, 50 mM NaCl, 0.01% Triton X-100; 384-well plates
Details: both partners purified

Row | Binder | Kd
1 | B1 | ~16 µM
2 | B2 | ~16 µM
